Reference: PMC12148038, “Enhancement of CEP215 dynamics for spindle pole assembly during mitosis” (Journal of Cell Science, 2025)

T1: MBP–CEP215^1814-1877 (human, UniProt Q96SN8 1814-1877)
T1 construct: CEP215 (CDK5RAP2), human, residues 1814-1877; source: E. coli Rosetta (DE3) (pET Duet-1 vector), purified (amylose column, SEC)
T1 sequence (looked up): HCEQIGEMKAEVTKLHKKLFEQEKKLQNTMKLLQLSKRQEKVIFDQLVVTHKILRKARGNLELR


How the values were obtained:
[1] = molecular target: MBP–CEP215^1661-1893 (human) (UniProt Q96SN8); experiment: ITC; 25 µM MBP–CEP215 1661-1893 in the cell, titrated with 250 µM PCNT fragment, 29 injections, 25°C, MicroCal PEAQ-ITC
MBP–CEP215^1814-1877 = molecular target: T1, MBP–CEP215^1814-1877; experiment: SEC; mixture of the two purified proteins, size exclusion chromatography followed by SDS-PAGE of the fractions; settings: both partners purified
[2] = molecular target: the molecule itself; experiment: SEC-MALS; each purified protein at 1 to 5 mg/ml on Superdex 200 Increase 5/150 GL with MALS-UV-RI detectors

Molecule | stoichiometry N [2] | also measured
PCNT fragment used in the ITC experiment (from UniProt O95613 2350-2450) (domain or fragment) | – | Kd [1]: 164 nM
RPKHVKALLQMVRDESHQILALSEGLAPPSGEP (domain or fragment, human, UniProt O95613 2388-2420, looked up, PCNT (pericentrin), human, residues 2388-2420; source: E. coli Rosetta (DE3) (pET Duet-1 vector), purified (amylose column, SEC)) [MBP–PCNT^2388-2420] | – | binding result (MBP–CEP215^1814-1877): binds
PCNT^2350-2450 (domain or fragment, human, UniProt O95613 2350-2450, looked up, PCNT (pericentrin), human, residues 2350-2450; Homodimer by SEC-MALS; calculated monomer mass 11.3 kDa, which fits a fragment without MBP; source: bacterially expressed, purified (amylose column, TEV cleavage, anion exchange, SEC)) RLSPGSGGPEAQTAGPVTPASISGRFQPLPEAMKEKEVRPKHVKALLQMVRDESHQILALSEGLAPPSGEPHPPRKEDEIQDISLHGGKTQEVPTACPDWR | 2 | –
MBP–CEP215^1661-1893 (domain or fragment, human, UniProt Q96SN8 1661-1893, looked up, Homodimer by SEC-MALS; calculated monomer mass with MBP 71.8 kDa; also called CEP215 fragment; source: bacterially expressed (pPROEX vector), purified (amylose column, SEC)) MESDNSFDLFDSSQAVTPKSVSETPPLSGNDTDSLSCDSGSSATSTPCVSRLVTGHHLWASKNGRHVLGLIEDYEALLKQISQGQRLLAEMDIQTQEAPSSTSQELGTKGPHPAPLSKFVSSVSTAKLTLEEAYRRLKLLWRVSLPEDGQCPLHCEQIGEMKAEVTKLHKKLFEQEKKLQNTMKLLQLSKRQEKVIFDQLVVTHKILRKARGNLELRPGGAHPGTCSPSRPGS | 2 | –
